Laboratory results: PMC3912051

Tests used:
[1] = target: ZNF10 KRAB-AB KRAB-AB (Homo sapiens) (UniProt P21506); details: cited from earlier work
[2] = target: TRIM28 (endogenous human TRIM28 protein) (human (endogenous in HeLa)) (UniProt Q13263)
Chain of TRIM28 (endogenous human TRIM28 protein) (human (endogenous in HeLa)) (Q13263 whole entry): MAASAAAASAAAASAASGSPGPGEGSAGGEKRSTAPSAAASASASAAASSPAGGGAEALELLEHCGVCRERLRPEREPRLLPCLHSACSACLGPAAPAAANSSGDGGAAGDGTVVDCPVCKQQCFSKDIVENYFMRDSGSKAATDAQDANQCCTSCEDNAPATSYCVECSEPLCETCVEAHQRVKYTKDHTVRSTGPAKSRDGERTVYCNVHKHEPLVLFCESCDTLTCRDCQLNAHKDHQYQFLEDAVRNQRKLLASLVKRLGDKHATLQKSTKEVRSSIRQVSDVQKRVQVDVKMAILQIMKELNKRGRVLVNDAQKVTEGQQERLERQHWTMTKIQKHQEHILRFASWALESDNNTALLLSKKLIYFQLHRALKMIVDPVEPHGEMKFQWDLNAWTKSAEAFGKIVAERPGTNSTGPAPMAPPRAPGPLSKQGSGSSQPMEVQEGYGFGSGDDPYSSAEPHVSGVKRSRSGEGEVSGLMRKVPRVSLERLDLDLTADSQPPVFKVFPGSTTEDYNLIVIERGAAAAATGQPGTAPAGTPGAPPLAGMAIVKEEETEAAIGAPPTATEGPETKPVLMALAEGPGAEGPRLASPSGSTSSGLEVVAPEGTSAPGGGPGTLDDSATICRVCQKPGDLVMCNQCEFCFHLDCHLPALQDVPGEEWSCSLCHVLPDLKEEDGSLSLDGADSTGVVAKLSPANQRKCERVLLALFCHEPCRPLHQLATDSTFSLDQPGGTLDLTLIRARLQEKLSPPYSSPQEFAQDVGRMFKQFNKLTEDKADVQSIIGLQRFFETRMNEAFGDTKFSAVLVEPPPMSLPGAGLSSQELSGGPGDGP

Chain of TRIM28 (Q13263 2-835): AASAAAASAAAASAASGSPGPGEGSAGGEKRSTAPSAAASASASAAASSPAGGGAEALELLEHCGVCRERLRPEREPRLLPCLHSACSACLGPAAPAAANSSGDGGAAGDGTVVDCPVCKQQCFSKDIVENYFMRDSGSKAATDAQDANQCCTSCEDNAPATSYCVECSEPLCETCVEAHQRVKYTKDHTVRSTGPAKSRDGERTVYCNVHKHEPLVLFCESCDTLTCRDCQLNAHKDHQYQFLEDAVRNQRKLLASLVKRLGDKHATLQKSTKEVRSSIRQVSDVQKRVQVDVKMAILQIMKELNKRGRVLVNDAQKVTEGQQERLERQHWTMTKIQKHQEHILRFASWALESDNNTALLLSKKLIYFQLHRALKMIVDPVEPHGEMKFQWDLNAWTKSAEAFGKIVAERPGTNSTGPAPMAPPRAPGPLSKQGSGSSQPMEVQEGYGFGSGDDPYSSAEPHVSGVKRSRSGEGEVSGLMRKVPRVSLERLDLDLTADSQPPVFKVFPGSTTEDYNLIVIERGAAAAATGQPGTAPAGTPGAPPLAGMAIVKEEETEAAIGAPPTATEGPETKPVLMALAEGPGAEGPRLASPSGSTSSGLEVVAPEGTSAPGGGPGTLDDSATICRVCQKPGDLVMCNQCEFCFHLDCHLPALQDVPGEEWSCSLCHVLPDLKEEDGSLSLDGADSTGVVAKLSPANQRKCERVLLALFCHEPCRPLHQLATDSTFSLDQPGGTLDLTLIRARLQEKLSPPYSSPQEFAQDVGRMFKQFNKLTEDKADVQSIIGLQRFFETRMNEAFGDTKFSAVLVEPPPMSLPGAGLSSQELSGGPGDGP
Chain of ZNF10 KRAB-AB KRAB-AB (Homo sapiens) (P21506 14-85): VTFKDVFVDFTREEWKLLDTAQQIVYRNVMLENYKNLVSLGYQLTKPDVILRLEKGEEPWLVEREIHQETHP

Substance	Kd [1]	fold repression of a Gal4-site luciferase reporter by Gal4-XFIN-KRAB-AB in EPC fish cells with co-transfected human TRIM28 (negligible without it) [2]
TRIM28 (from UniProt Q13263)	142 nM	
GST-XFIN-KRAB-AB (corrected KRAB-AB domain of Xenopus laevis XFIN fused to glutathione S-transferase) (domain or fragment)		2 fold
